Measurements reported in patent US12630596B2, “Engineered lysin-human defensin protein” (priority 2018, dated 2026).
Converted amounts (≈) assume the structure as drawn. Read-outs that look alike come from different tables or passages of the source.

B1: LCD: Catalytic domain (179 aa) of the lysin of C. difficile phage phiC2; SEQ ID NO:2; included as a control (protein)
chain: MKICITVGHSILKSGACTSADGVVNEYQYNKSLAPVLADTFRKEGHKVDVIICPEKQFKTKNEEKSYKIPRVNSGGYDLLIELHLNASNGQGKGSEVLYYSNKGLEYATRICDKLGTVFKNRGAKLDKRLYILNSSKPTAVLIESFFCDNKEDYDKAKKLGHEGIAKLIVEGVLNKNIN
notes: Catalytic domain (179 aa) of the lysin of C. difficile phage phiC2; included as a control

Columns and labels:
C. difficile R20291 [1] = experiment: Minimum inhibitory concentration (MIC) on strain R20291; type: cell-based, Clostridium difficile; conditions: strain R20291, BHIS, 37° C. for 18 h
Description: The minimum inhibitory concentrations (MICs) of LHD and LCD were determined using the protocol of Wiegand, et al. (Wiegand, Hilpert et al. 2008) with some modifications, as described previously (Gilmer, Schmitz et al. 2017). In brief, strain R20291 was grown in BHIS and adjusted to ˜5×10^5 cells/ml in BHIS, and distributed into the wells of a 96-well round bottom polystyrene microtiter plate. In the wells of each row, either sterile-filtered lysin or control vehicle (metronidazole, vancomycin and fidaxomicin) was added with a final concertation varied from 200 μg/ml to 0.19 μg/ml (2-fold dilution) (Wiegand, Hilpert et al. 2008). The plates were incubated at 37° C. for 18 h. The MIC was “the lowest or minimum concentration of lysin or control vehicle that prevented the formation of a cell pellet (a measure of growth) on the bottom of the wells” (Gilmer, Schmitz et al. 2017). The MICs were also confirmed by measuring the OD600 values using a Bio-Rad plate reader (Bio-Rad, Hercules, CA).

C. difficile R20291 [2] = experiment: Optical drop assay, lytic activity on C. difficile R20291; type: cell-based, Clostridium difficile; conditions: strain R20291, 200 μg/ml
Description: (§1) The lytic activity of proteins LHD and LCD against C. difficile strains was determined as previously described (Wang, Euler et al. 2015). Briefly, C. difficile strains were cultured in an anaerobic chamber to mid-log phase, and the bacterial pellets were harvested by centrifugation at 3000×g for 5 min. Pellets were washed twice and re-suspended in sterilized ddH2O, and resuspensions were not buffered. Prior to tests, bacterial optical density at 600 nm (OD600) was adjusted to approximately 0.8-1.0. Proteins LHD and LCD were added into the cell re-suspension with the final concentration of 200 μg/ml. The drop in OD600 at 37° C. was measured every 10 minutes for 60 min˜90 min. Bacterial re-suspension with sterilized water was also set as a control. Three repeats were included in each test.

[3] = biological target: Clostridium difficile toxin B (TcdB) (Clostridioides difficile, UniProt P18177); experiment: Inhibition of TcdB cytotoxicity in CT26 cells (cell rounding, non-glucosylated Rac1 Western blot); type: cell-based; conditions: pre-treatment 750 ng/ml 1 hr, TcdB 15 ng/ml 5 hrs
Sequence of Clostridium difficile toxin B (TcdB) (P18177 whole entry): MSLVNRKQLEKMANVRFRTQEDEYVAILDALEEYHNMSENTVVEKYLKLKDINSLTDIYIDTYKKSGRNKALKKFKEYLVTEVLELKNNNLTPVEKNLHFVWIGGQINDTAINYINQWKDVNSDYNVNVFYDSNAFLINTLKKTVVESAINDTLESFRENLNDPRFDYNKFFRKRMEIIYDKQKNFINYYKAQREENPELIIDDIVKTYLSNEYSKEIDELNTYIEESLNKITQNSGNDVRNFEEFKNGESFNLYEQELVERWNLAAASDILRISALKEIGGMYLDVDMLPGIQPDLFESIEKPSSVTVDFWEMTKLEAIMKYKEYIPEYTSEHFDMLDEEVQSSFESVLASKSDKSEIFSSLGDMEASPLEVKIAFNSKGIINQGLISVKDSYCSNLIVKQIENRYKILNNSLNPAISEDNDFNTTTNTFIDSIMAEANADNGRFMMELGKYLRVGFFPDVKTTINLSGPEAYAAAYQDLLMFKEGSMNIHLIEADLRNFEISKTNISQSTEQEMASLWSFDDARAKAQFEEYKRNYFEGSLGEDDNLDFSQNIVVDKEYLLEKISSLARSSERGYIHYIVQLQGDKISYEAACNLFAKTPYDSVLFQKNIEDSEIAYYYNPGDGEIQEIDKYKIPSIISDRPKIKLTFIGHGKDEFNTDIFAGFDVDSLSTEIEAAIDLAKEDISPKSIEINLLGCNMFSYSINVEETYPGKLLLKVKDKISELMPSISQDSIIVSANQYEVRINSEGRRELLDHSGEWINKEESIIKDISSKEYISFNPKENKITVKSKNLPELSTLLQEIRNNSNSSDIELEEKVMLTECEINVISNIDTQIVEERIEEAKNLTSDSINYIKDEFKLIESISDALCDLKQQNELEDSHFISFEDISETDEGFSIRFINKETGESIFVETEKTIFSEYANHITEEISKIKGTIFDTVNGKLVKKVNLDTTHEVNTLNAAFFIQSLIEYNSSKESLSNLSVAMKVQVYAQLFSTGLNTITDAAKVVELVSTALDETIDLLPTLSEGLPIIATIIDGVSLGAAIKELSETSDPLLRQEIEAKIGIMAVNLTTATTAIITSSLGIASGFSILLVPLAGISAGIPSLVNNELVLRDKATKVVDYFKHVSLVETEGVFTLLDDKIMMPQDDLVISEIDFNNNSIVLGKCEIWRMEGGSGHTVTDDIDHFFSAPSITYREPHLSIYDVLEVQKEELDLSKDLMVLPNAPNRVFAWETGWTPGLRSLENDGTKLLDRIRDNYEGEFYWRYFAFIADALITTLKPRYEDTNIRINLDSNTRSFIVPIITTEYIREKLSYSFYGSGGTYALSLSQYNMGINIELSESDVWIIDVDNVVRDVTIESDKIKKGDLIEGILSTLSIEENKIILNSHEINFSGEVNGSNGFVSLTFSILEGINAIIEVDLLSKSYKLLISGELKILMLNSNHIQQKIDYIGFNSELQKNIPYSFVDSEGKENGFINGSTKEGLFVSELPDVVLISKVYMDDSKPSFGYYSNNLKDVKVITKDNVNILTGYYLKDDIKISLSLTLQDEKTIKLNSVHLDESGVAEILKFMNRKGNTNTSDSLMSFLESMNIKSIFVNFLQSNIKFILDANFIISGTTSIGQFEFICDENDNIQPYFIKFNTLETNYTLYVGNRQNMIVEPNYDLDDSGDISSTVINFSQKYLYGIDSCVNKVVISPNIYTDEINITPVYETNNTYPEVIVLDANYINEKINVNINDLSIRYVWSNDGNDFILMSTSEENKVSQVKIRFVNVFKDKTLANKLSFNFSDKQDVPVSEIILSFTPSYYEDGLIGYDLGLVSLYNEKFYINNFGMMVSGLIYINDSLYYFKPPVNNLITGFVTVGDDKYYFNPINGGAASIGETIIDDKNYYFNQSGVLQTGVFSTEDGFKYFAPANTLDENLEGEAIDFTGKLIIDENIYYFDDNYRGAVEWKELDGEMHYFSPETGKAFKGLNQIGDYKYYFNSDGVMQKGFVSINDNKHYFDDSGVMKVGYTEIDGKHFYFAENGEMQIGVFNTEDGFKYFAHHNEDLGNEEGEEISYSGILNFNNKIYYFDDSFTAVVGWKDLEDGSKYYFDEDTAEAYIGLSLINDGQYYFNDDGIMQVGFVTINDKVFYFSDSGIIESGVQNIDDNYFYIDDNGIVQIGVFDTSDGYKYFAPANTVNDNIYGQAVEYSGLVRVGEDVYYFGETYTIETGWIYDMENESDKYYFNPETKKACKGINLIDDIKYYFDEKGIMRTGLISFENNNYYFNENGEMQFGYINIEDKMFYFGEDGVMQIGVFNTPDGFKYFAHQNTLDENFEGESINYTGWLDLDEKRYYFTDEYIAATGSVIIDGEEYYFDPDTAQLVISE
Description: (§2) (FIG. 5A) LHD inhibits TcdB-induced cell rounding. CT26 cells in 12-well plates were exposed to HD or LHD at 750 ng/ml (50 times of TcdB concentration) or nothing for 1 hour, followed by exposure to TcdB at 15 ng/ml for 5 hours. (FIG. 5B) Western-blot analysis of non-glucosylated Rac1 in CT26 cells treated with TcdB in the presence or absence of LHD or HD. TcdB glucosylates Rac1 in cells, serving as a readout for toxin cytotoxicity. Quantitation of Rac1 levels in Western-blot was shown in low panel (*p<0.05). (FIG. 5C) CT26 cells were lysed, and the cytosolic fraction was exposed to TcdB (15 ng/ml) with or without HD at 750 ng/ml (50 times of TcdB concentration) or LHD at 1500 ng/ml (same molecular concentration as HD) or nothing for 1 h followed by Western Blot analysis using a monoclonal antibody that only recognizes non-glucosylated Rac1. β-actin was used as an equal loading control. Quantitation of Rac1 levels in Western-blot was shown in low panel (****p<0.0001).
It was reported that the human defensin protein HD5 (HD) could inhibit TcdB (Giesemann, Guttenberg et al. 2008). Therefore, we evaluated the inhibitory effects of LHD and HD on TcdB. Briefly, CT26 cells in 12-well plates were exposed to LHD, synthesized HD or PBS at 750 ng/ml (50 times of TcdB concentration) for 1 hr, followed by exposure to TcdB at 15 ng/ml for 5 hrs. Total cell lysates were subjected to 12% SDS-PAGE separation, and transferred onto a Nylon membrane. Following blocking for 1 hr at room temperature with 5% skim milk, the membrane was incubated overnight at 4° C. with RAC1 antibody (1:1000, Cat: 610650, BD Biosciences) and β-actin antibody (1:10000, Cat: A5441, Sigma-Aldrich).

[4] = biological target: Glucosyltransferase (GT) activity of TcdB (Clostridioides difficile, UniProt P18177); experiment: TcdB glucosyltransferase activity on Rac1 in CT26 cytosolic fraction; type: biochemical, Clostridium difficile; conditions: TcdB 15 ng/ml, 750 ng/ml, 1 hr
Sequence of Glucosyltransferase (GT) activity of TcdB (P18177 whole entry): as above
Description: as §2
Glucosyltransferase (GT) activity of TcdB was also measured by its ability to glucosylate Rho GTPase Rac1 in cell lysates (Zhang, Shi et al. 2013). CT26 cell pellets were resuspended in a reaction buffer (50 mM HEPES, pH 7.5, 100 mM KCl, 1 mM MnCl2 and 2 mM MgCl2), and lysed by passing through a 30 G needle for 40 times. […]

[5] = test system: C. difficile strains M120, VPI 10463, CD630, LC693, 1377; experiment: Optical drop assay, lytic activity on other clinical epidemic C. difficile strains; type: cell-based, Clostridium difficile; conditions: different types of clinical epidemic strains, 200 μg/ml
Text: C. difficile strains R20291 (ribotype 027), M120 (ribotype 078), VPI 10463 (ribotype 087; ATCC 43255), CD630 (ribotype 012), LC693 (ribotype unknown, ST201), and 1377 (ribotype 012) were used in this study. Strains M120 and VPI 10463 were provided by Dr. Joseph A. Sorg from Texas A&M University. Strains R20291 and CD630 were provided by Dr. Abraham L. Sonenshein from Tufts University. Strains 1377 and LC693 were epidemic clinical strains in China (Li, Liu et al. 2015, Peng, Liu et al. 2017).
as §1

[6] = Clostridioides difficile, read-out: MIC

Molecule | MIC (C. difficile R20291 [1]; [6]) [µg/mL] | lytic activity (drop in OD600) (C. difficile R20291 [2]) | glucosyltransferase activity of TcdB [4] | other results
CCc1c(Cl)c(O)c(Cl)c(O)c1C(=O)O[C@H]1[C@H](O)[C@H](OC)[C@H](OC/C2=C\C=C\C[C@H](O)/C(C)=C/[C@H](CC)[C@@H](O[C@@H]3OC(C)(C)[C@@H](OC(=O)C(C)C)[C@H](O)[C@@H]3O)/C(C)=C/C(C)=C/C[C@@H]([C@@H](C)O)OC2=O)O[C@@H]1C [Fidaxomicin, fidaxomicin] | 0.25 (≈ 0.236 µM) |  |  | 
HD5: Human alpha-defensin 5 peptide (32 aa), synthesized; SEQ ID NO:3 (ATCYCRTGRCATRESLSGVCEISGRLYRLCCR) [reference compound] |  | moderate lytic activity | significantly inhibited | cell rounding caused by TcdB [3]: decreased cell rounding; non-glucosylated Rac1 in cells (readout of cytotoxicity of TcdB) [3]: inhibited the cytotoxicity
CN[C@H](CC(C)C)C(=O)N[C@H]1C(=O)N[C@@H](CC(N)=O)C(=O)N[C@H]2C(=O)N[C@H]3C(=O)N[C@H](C(=O)N[C@H](C(=O)O)c4cc(O)cc(O)c4-c4cc3ccc4O)[C@H](O)c3ccc(c(Cl)c3)Oc3cc2cc(c3O[C@@H]2O[C@H](CO)[C@@H](O)[C@H](O)[C@H]2O[C@H]2C[C@](C)(N)[C@H](O)[C@H](C)O2)Oc2ccc(cc2Cl)[C@H]1O [Vancomycin, vancomycin] | 4 (≈ 2.76 µM) |  |  | 
Cc1ncc([N+](=O)[O-])n1CCO [Metronidazole, metronidazole] | 4 (≈ 23.4 µM) |  |  | 
B1 |  | potent lytic activities | significantly inhibited | lytic activity (drop in OD600) [5]: potent lytic activities; MIC (C. difficile R20291 [1]): 1.56 µg/mL
